Response data for 6 variants are collected here from publication PMC12630686, “A degron-mimicking molecular glue drives CRBN homo-dimerization and degradation” (Nature Communications, 2025).

To fix the notation:
B1: HaloTag-CRBN (human, wild type) [human] / hCRBN-NanoLuc with a 191-248 aa deletion (Trunc) [human] (parent)
chain 1: MAGEGDQQDAAHNMGNHLPLLPAESEEEDEMEVEDQDSKEAKKPNIINFDTSLPTSHTYLGADMEEFHGRTLHDDDSCQVIPVLPQVMMILIPGQTLPLQLFHPQEVSMVRNLIQKDRTFAVLAYSNVQEREAQFGTTAEIYAYREEQDFGIEIVKVKAIGRQRFKVLELRTQSDGIQQAKVQILPECVLPSTMSAVQLESLNKCQIFPSKPVSREDQCSYKWWQKYQKRKFHCANLTSWPRWLYSLYDAETLMDRIKKQLREWDENLKDDSLPSNPIDFSYRVAACLPIDDVLRIQLLKIGSAIQRLRCELDIMNKCTSLCCKQCQETEITTKNEIFSLSLCGPMAAYVNPHGYVHETLTVYKACNLNLIGRPSTEHSWFPGYAWTVAQCKICASHIGWKFTATKKDMSPQKFWGLTRSALLPTIPDTEDEISPDKVILCL
chain 2: MAGEGDQQDAAHNMGNHLPLLPAESEEEDEMEVEDQDSKEAKKPNIINFDTSLPTSHTYLGADMEEFHGRTLHDDDSCQVIPVLPQVMMILIPGQTLPLQLFHPQEVSMVRNLIQKDRTFAVLAYSNVQEREAQFGTTAEIYAYREEQDFGIEIVKVKAIGRQRFKVLELRTQSDGIQQAKVQILPECVLDAETLMDRIKKQLREWDENLKDDSLPSNPIDFSYRVAACLPIDDVLRIQLLKIGSAIQRLRCELDIMNKCTSLCCKQCQETEITTKNEIFSLSLCGPMAAYVNPHGYVHETLTVYKACNLNLIGRPSTEHSWFPGYAWTVAQCKICASHIGWKFTATKKDMSPQKFWGLTRSALLPTIPDTEDEISPDKVILCL
B2: HaloTag-mouse CRBN (wild type) [mouse] / hCRBN-NanoLuc with a 191-248 aa deletion (Trunc) [human] (parent)
chain 1: MAGEGDQQDAAHNMGNHLPLLPADSEDEDDEIEMEVEDQDSKEARKPNIINFDTSLPTSHTYLGADMEEFHGRTLHDDDSCQVIPVLPEVLMILIPGQTLPLQLSHPQEVSMVRNLIQKDRTFAVLAYSNVQEREAQFGTTAEIYAYREEQEFGIEVVKVKAIGRQRFKVLELRTQSDGIQQAKVQILPECVLPSTMSAVQLESLNKCQVFPSKPISWEDQYSCKWWQKYQKRKFHCANLTSWPRWLYSLYDAETLMDRIKKQLREWDENLKDDSLPENPIDFSYRVAACLPIDDVLRIQLLKIGSAIQRLRCELDIMNKCTSLCCKQCQETEITTKNEIFSLSLCGPMAAYVNPHGYVHETLTVYKASNLNLIGRPSTVHSWFPGYAWTIAQCKICASHIGWKFTATKKDMSPQKFWGLTRSALLPTIPETEDEISPDKVILCL
chain 2: B1 chain 2

Variants of B1 are the subject of the first assay. Description: NanoBRET. The conditions noted are these: with hCRBN-NanoLuc with a 191-248 aa deletion (Trunc) [human]; MRT-31619 at log10 concentration = 4 (highest dose; concentration unit inferred); three biological replicates, mean ± SEM; read off a plot. On the technique in general: In BRET a luciferase serves as donor, and the signal depends on an acceptor being close.
With chain 1 MAGEGDQQDAAHNMGNHLPLLPAESEEEDEMEVEDQDSKEAKKPNIINFDTSLPTSHTYLGADMEEFHGRTLHDDDSCQVIPVLPQVMMILIPGQTLPLQLFHPQEVSMVRNLIQKDRTFAVLAYSNVQEREAQFGTTAEIYAYREEQDAGIEIVKVKAIGRQRFKVLELRTQSDGIQQAKVQILPECVLPSTMSAVQLESLNKCQIFPSKPVSREDQCSYKWWQKYQKRKFHCANLTSWPRWLYSLYDAETLMDRIKKQLREWDENLKDDSLPSNPIDFSYRVAACLPIDDVLRIQLLKIGSAIQRLRCELDIMNKCTSLCCKQCQETEITTKNEIFSLSLCGPMAAYVNPHGYVHETLTVYKACNLNLIGRPSTEHSWFPGYAWTVAQCKICASHIGWKFTATKKDMSPQKFWGLTRSALLPTIPDTEDEISPDKVILCL [chain 1 F150A], the response stood at 3.7 mBU.

In the case of chain 1 MAGEGDQQDAAHNMGNHLPLLPAESEEEDEMEVEDQDSKEAKKPNIINFDTSLPTSHTYLGADMEEFHGRTLHDDDSCQVIPVLPQVMMILIPGQTLPLQLFHPQEVSMVRNLIQKDRTFAVLAYSNVQEREAQFGTTAEIYAYREEQDFGIEIVKVKAIGRQRFKVLELRTQSDGIQQAKVQILPECVLPSTMSAVQLESLNKCQIFPSKPVSREDQCSYKWWQKYQKRKFHCANLTSWPRWLYSLYDAETLMDRIKKQLREWDENLKDDSLPSNPIDFSYRVAACLPIDDVLRIQLLKIGSAIQRLRCELDIMNKCTSLCCKQCQETEITTKNEIFSLSLCGPMAAYVNPHGYVHETLTVYKACNLNLIGAPSTEHSWFPGYAWTVAQCKICASHIGWKFTATKKDMSPQKFWGLTRSALLPTIPDTEDEISPDKVILCL [chain 1 R373A], the response was determined as 2.6 mBU.

Consider chain 1 MAGEGDQQDAAHNMGNHLPLLPAESEEEDEMEVEDQDSKEAKKPNIINFDTSLPTSHTYLGADMEEFHGRTLHDDDSCQVIPVLPQVMMILIPGQTLPLQLFHPQEVSMVRNLIQKDRTFAVLAYSNVQEREAQFGTTAEIYAYREEQDAGIEIVKVKAIGRQRFKVLELRTQSDGIQQAKVQILPECVLPSTMSAVQLESLNKCQIFPSKPVSREDQCSYKWWQKYQKRKFHCANLTSWPRWLYSLYDAETLMDRIKKQLREWDENLKDDSLPSNPIDFSYRVAACLPIDDVLRIQLLKIGSAIQRLRCELDIMNKCTSLCCKQCQETEITTKNEIFSLSLCGPMAAYVNPHGYVHETLTVYKACNLNLIGAPSTEHSWFPGYAWTVAQCKICASHIGWKFTATKKDMSPQKFWGLTRSALLPTIPDTEDEISPDKVILCL [chain 1 F150A R373A], for which the response is 2.9 mBU.

Turning to chain 1 MAGEGDQQDAAHNMGNHLPLLPAESEEEDEMEVEDQDSKEAKKPNIINFDTSLPTSHTYLGADMEEFHGRTLHDDDSCQVIPVLPQVMMILIPGQTLPLQLFHPQEVSMVRNLIQKDRTFAVLAYSNVQEREAQFGTTAEIYAYREEQDFGIEIVKVKAIGRQRFKVLELRTQSDGIQQAKVQILPECVLPSTMSAVQLESLNKCQIFPSKPVSREDQCSYKWWQKYQKRKFHCANLTSWPRWLYSLYDAETLMDRIKKQLREWDENLKDDSLPSNPIDFSYRVAACLPIDDVLRIQLLKIGSAIQRLRCELDIMNKCTSLCCKQCQETEITTKNEIFSLSLCGPMAAYVNPHGYVHETLTVYKACNLNLIGRPSTAHSWFPGYAWTVAQCKICASHIGWKFTATKKDMSPQKFWGLTRSALLPTIPDTEDEISPDKVILCL [chain 1 E377A], the response was 3.3 mBU.

Another assay covers variants of B2. The assay can be described thus: NanoBRET. The following applies: with hCRBN-NanoLuc with a 191-248 aa deletion (Trunc) [human]; MRT-31619 at log10 concentration = 4 (highest dose; concentration unit inferred); six biological replicates, mean ± SD; read off a plot.
For the variant chain 1 MAGEGDQQDAAHNMGNHLPLLPADSEDEDDEIEMEVEDQDSKEARKPNIINFDTSLPTSHTYLGADMEEFHGRTLHDDDSCQVIPVLPEVLMILIPGQTLPLQLFHPQEVSMVRNLIQKDRTFAVLAYSNVQEREAQFGTTAEIYAYREEQEFGIEVVKVKAIGRQRFKVLELRTQSDGIQQAKVQILPECVLPSTMSAVQLESLNKCQVFPSKPISWEDQYSCKWWQKYQKRKFHCANLTSWPRWLYSLYDAETLMDRIKKQLREWDENLKDDSLPENPIDFSYRVAACLPIDDVLRIQLLKIGSAIQRLRCELDIMNKCTSLCCKQCQETEITTKNEIFSLSLCGPMAAYVNPHGYVHETLTVYKASNLNLIGRPSTVHSWFPGYAWTIAQCKICASHIGWKFTATKKDMSPQKFWGLTRSALLPTIPETEDEISPDKVILCL [chain 1 S105F], the response was found to be 1.9 mBU.

As for chain 1 MAGEGDQQDAAHNMGNHLPLLPADSEDEDDEIEMEVEDQDSKEARKPNIINFDTSLPTSHTYLGADMEEFHGRTLHDDDSCQVIPVLPEVLMILIPGQTLPLQLSHPQEVSMVRNLIQKDRTFAVLAYSNVQEREAQFGTTAEIYAYREEQEFGIEVVKVKAIGRQRFKVLELRTQSDGIQQAKVQILPECVLPSTMSAVQLESLNKCQVFPSKPISWEDQYSCKWWQKYQKRKFHCANLTSWPRWLYSLYDAETLMDRIKKQLREWDENLKDDSLPENPIDFSYRVAACLPIDDVLRIQLLKIGSAIQRLRCELDIMNKCTSLCCKQCQETEITTKNEIFSLSLCGPMAAYVNPHGYVHETLTVYKASNLNLIGRPSTEHSWFPGYAWTVAQCKICASHIGWKFTATKKDMSPQKFWGLTRSALLPTIPETEDEISPDKVILCL [chain 1 V380E I391V], the response amounted to 2.7 mBU.
